According to patent US20220098319A1 (SHANGHAI PHARMAEXPLORER, published 2022):
Where a chain is given by its changes, count along the chain named.

T1: human CD73 (full length, on transfected CHOK1 cells) (human, UniProt P21589 27-549)
T1 sequence (looked up): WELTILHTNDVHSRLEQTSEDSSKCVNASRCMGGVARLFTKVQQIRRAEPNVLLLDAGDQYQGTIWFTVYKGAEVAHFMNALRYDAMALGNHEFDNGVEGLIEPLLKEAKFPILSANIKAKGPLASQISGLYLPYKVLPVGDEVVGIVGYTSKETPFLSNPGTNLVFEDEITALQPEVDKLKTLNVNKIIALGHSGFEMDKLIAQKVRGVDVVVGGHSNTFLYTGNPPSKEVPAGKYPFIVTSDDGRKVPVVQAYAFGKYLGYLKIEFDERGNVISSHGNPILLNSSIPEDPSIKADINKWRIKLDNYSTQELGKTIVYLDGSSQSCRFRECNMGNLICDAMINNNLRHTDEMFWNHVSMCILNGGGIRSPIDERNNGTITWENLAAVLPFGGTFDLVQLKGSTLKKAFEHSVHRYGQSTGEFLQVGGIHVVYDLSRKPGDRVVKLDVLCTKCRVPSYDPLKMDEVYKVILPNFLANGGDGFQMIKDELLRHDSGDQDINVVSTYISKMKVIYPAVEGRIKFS

T2: cynomolgus monkey CD73 (on transfected CHOK1 cells) (cynomolgus monkey, UniProt A0A2K5V5U7 27-549)
T2 construct: whole, on cells; also called CHOK1-cCD73; CHOK1-CCD73
T2 sequence: T1 sequence (looked up) with M199T, T350A, V466I

T3: murine CD73 (on transfected CHOK1 cells) (mouse, UniProt Q61503 29-551)
T3 construct: whole, on cells; also called CHOK1-mCD73; mCD73
T3 sequence (looked up): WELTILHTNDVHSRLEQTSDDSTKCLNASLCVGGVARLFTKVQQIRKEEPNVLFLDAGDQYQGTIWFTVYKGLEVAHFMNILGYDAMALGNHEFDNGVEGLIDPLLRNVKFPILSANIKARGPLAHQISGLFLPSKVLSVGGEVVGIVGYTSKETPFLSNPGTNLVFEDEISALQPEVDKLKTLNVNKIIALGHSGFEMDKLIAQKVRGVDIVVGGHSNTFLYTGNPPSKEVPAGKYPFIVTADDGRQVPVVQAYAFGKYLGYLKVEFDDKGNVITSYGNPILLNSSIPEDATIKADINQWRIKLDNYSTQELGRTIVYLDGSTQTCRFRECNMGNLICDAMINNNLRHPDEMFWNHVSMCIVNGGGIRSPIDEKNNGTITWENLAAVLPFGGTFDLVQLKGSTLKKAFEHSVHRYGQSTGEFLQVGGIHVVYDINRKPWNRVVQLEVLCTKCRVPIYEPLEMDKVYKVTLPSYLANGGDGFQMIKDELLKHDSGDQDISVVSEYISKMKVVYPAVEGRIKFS

T4: His-tagged CD73 extracellular domain protein (hCD73 ECD-His) (human, UniProt P21589 27-547)
T4 construct: Expressed in CHO cells from pTT5-hCD73 ECD-His6, purified on nickel column; also called hCD73 ECD-His6; human CD73 ECD
T4 sequence: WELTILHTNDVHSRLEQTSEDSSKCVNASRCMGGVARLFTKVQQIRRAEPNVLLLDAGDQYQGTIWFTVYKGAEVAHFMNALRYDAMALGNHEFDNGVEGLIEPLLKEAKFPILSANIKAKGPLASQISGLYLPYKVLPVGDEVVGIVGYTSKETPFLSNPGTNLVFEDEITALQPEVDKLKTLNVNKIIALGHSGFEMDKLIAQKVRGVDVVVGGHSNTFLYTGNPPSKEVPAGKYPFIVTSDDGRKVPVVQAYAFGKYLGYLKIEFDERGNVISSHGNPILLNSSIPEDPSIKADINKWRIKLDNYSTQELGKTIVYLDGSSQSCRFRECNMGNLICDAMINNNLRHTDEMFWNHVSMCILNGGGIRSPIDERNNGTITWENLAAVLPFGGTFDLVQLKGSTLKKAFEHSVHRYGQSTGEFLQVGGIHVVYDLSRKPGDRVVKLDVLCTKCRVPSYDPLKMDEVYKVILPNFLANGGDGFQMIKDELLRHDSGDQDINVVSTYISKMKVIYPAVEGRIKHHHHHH

B1: mab044xhIgG1TM (clone 80H7D6), mouse-human chimeric anti-CD73 antibody (antibody, V domains shown)
VH: EVKLVESGGGLVQPGGSLRLSCAASGFTFTDYYMSWVRQPPGKALEWLGFIRNKADGSTTEYSASVKGRFTISRDNSQSILYLQMNALRPEDSATYYCTRSPIYFDNWYFDVWGTGTTVTVSS
VL: DIVMSQSPSSLAVSVGEKVTMTCKSSQSLLYSNNQKNYLAWYQQKPGQSPKLLIYWASTRESGVPDRFTGSGSGTDFTLTLSSVKAEDLAVYYCQQYYSYPFTFGSGTKLEIK
notes: also called mAb044 chimeric antibody
B2: mab038xhIgG1TM (clone 69C9E12), mouse-human chimeric anti-CD73 antibody (antibody, V domains shown)
VH: QVQLQQPGTELVNPGASVKLSCKASGYTFTSYWMHWVKQRPGQGLEWIGNINPSNGGTHYNEKFNNKATLTVDKSSSTAYMQLSSLTSEDSAVFYCARGDYAYDWYFTVWGTGTTVTVSS
VL: DIVLTQSPASLAVSLGQRAIISCKASQSVSFAGTGLMHWYQQKPGQQPKLLIYRVSNLEAGIPTRFSGSGSRTDFTLNIHPVEEDDAATYYCQQNREFPWTFGGGTKLEIK
notes: also called mAb038 chimeric antibody
B3: mab041xhIgG1TM (clone 71E10B3), mouse-human chimeric anti-CD73 antibody (antibody, V domains shown)
VH: QVQLQQPGTELVKPGASVKLSCKASGYTFTSYWMHWVKQRPGQGLEWIGNINPSNGGTNYNQKFKSKATLTVDKSSNTASMQLSSLTSEDSAVYYCARGDYGYDWYLDVWGTGTTVTVSS
VL: B2 VL with T34P, G35S, V55T, I62V, R72G
notes: also called mAb041 chimeric antibody
B4: mab042xhIgG1TM (clone 77B9A3), mouse-human chimeric anti-CD73 antibody (antibody, V domains shown)
VH: QVQLQQSGAGLVKPGASVKLSCKASGYTFTNYWMHWVKQRPGQGLEWIGMIHPNSGSTNNNEKFKNKATLTVDKSSNTAYMQLSSLTSEDSAVYYCARFFFGGYPHYYALDYWGQGTSVTVSS
VL: DIVMTQSQKFMSTTVGDRVSITCKASQNVGTAVAWYQQKPGQSPKLLIYSASDRYTGVPDRLTGSGSGTDFTLTISNVQSEDLADYFCQQYSSFPLFTFGSGTKLVIQ
notes: also called mAb042 chimeric antibody
B5: mab065xhIgG1TM (clone 125A4E10), mouse-human chimeric anti-CD73 antibody (antibody, V domains shown)
VH: EVQLQQSGPELVKPGASVKISCKASGYTFTDYYMNWVKQSHGKSLEWIGNINPNNGDTNYNQKFKGKATLTVDKSSSTASMELRSLTSEDSAVYYCANSGYYYFDYWGQGTTLTVSS
VL: DIVMTQSPSSLTVTAGEKVTMSCKSSQSLLNSGNQKNYLTWYQQKPGQPPKVLIYWASTRESGVPDRFTGSGSGTDFTLTISSVQAEDLAVYYCQNDYSYPPTFGGGTNLEIK
notes: also called mAb065 chimeric antibody
B6: mab030xhIgG1TM (clone 42A5A7), mouse-human chimeric anti-CD73 antibody (antibody, V domains shown)
VH: DIQLQESGPGLVKPSQSLSLTCSVTGYSITSRYYWNWIRQFPGNKLEWMGYITYDDNNNYNPSLKNRISITRDTSKNQFFLKLNSVTPEDTATYYCARGGWDPFLYWGQGTLVTVSA
VL: DIQMTQSPASLSASVGETVTITCRASDNIYSYLAWYQQKQGKSLQLLVDSAKNLGEGVPSRFSGSGSGTQFYLKINSLQPEDFGVYYCQHYYGTPFTFGGGTKLELK
notes: also called mAb030 chimeric antibody
B7: Hu030-2, humanized anti-CD73 antibody (Hu030VH g1 / Hu030VL g0) (antibody, V domains shown)
VH: QVQLQESGPGLVKPSETLSLTCTVSGYSITSRYYWNWIRQPPGKGLEWIGYITYDDNNNYNPSLKNRVTISRDTSKNQFSLKLSSVTAADTAVYYCARGGWDPFLYWGQGTLVTVSS
VL: DIQMTQSPSSLSASVGDRVTITCRASDNIYSYLAWYQQKPGKAPKLLIYSAKNLGEGVPSRFSGSGSGTDFTLTISSLQPEDFATYYCQHYYGTPFTFGGGTKVEIK
notes: also called antibody 11

Target: T1, human CD73 (full length, on transfected …)
Assay: cell-based or functional assay

| Inhibition assay of enzyme activity, IC50 | Inhibition assay of enzyme activity, MAX % inhibition | Binder |
| --- | --- | --- |
| 0.1 nM | 49.1% | B1 |
| 0.8 nM | 52.4% | B2 |
| 0.7 nM | 54.4% | B3 |
| 0.5 nM | 66.3% | B4 |
| 0.1 nM | 54.7% | B5 |
| 0.1 nM | 67.4% | B6 |

Target: T2, cynomolgus monkey CD73 (on transfected …)
Assay: FACS on CHOK1-cCD73 cells

| EC50 | MAX MFI fold | Binder |
| --- | --- | --- |
| 7.6 nM | 174 fold | B1 |
| 2.3 nM | 167 fold | B2 |
| 2 nM | 167 fold | B3 |
| 5.9 nM | 132 fold | B4 |
| 3.6 nM | 173 fold | B5 |
| 0.8 nM | 138 fold | B6 |

Target: T1, human CD73 (full length, on transfected …)
Assay: FACS on CHOK1-hCD73 cells

| EC50 | MAX MFI fold | Binder |
| --- | --- | --- |
| > 10 nM | > 150 fold | B1 |
| 1.8 nM | 120 fold | B2 |
| 1.3 nM | 127 fold | B3 |
| 2.3 nM | 136 fold | B4 |
| 1.2 nM | 160 fold | B5 |
| 1.5 nM | 114 fold | B6 |

Target: T3, murine CD73 (on transfected CHOK1 cells)
Assay: FACS on CHOK1-mCD73 cells

| binding result | Binder |
| --- | --- |
| no binding | B1 |
| no binding | B2 |
| no binding | B3 |
| no binding | B4 |
| no binding | B5 |
| no binding | B6 |

Target: T4, His-tagged CD73 extracellular domain …
Assay: Octet BLI, antibody on AHC sensor, antigen 50-200 nM, 1:1 fit
Source text: Octet Red 96 was selected as the test instrument, and AHC biosensor was selected as the test sensor in this experiment. Anti-human IgG Fc antibody has been immobilized on the AHC sensor, which can be used to directly capture the 15 antibodies in this experiment. Then the sensor was immersed in the analysis sample (antigen). There were five steps in this experiment: 1, Baseline (120 s) 2, Loading (capture antibody) (300 s) 3, Baseline (120 s) 4, Association (binding antigen) (180 s) 5, Dissociation (antigen dissociation) (1200 s). After the test was completed, the regeneration buffer (Glycine PH1.5) and the neutralization buffer (1*PBS buffer) were alternately immersed for 5 seconds, and the sensor was regenerated by a total of five cycles. The maximum number of sensor regeneration times is 10. The running buffer in this experiment is the sample diluent (1*PBS buffer containing 0.02% Tween20 and 0.1% BSA), that is, the buffer used in the Baseline step, the Dissociation step, and the blank analyte sample. Four sensors are used at one running in this experiment.
Sample treatment: all the antibodies were diluted to the working concentration of 10 ug/ml with sample diluent (1*PBS buffer containing 0.02% Tween20 and 0.1% BSA), and the analyte samples (antigens) were diluted to three working concentrations: 200 nM, 100 nM and 50 nM.
For data analysis, Octet Data Analysis (version 7.0) was used to calculate the response signal value (the signal of the coupled analyte sample minus the signal of the blank analyte sample), and a 1:1 binding model was used to fit the data.

| Kd | koff | kon | Binder |
| --- | --- | --- | --- |
| 0.086 nM | 3.29e-05 s⁻¹ | 383000 M⁻¹ s⁻¹ | B1 |
| 0.124 nM | 2.97e-05 s⁻¹ | 240000 M⁻¹ s⁻¹ | B2 |
| 0.298 nM | 4.41e-05 s⁻¹ | 148000 M⁻¹ s⁻¹ | B3 |
| 0.0592 nM | 2.73e-05 s⁻¹ | 461000 M⁻¹ s⁻¹ | B4 |
| 0.112 nM | 4.86e-05 s⁻¹ | 434000 M⁻¹ s⁻¹ | B5 |
| 0.0385 nM | 1.16e-05 s⁻¹ | 302000 M⁻¹ s⁻¹ | B6 |

Target: T4, His-tagged CD73 extracellular domain …
Assay: affinity to hCD73 ECD-His (headed SPR; Octet assumed as in 5.5)

| Kd | koff | kon | Binder |
| --- | --- | --- | --- |
| 0.0316 nM | 2.27e-05 s⁻¹ | 719000 M⁻¹ s⁻¹ | B6 |
| 0.0208 nM | 1.55e-05 s⁻¹ | 746000 M⁻¹ s⁻¹ | B7 |
